One block for each molecule: values may come before it.
Experiments:
[1] = target: Human serine racemase (human) (UniProt Q9GZT4)
[2] = target: Human serine racemase (human) (UniProt Q9GZT4); experiment: ITC; PSD-95 PDZ3 (600 uM, syringe) titrated into hSR (20 uM, cell); 25 °C, 50 mM HEPES pH 8.0; single-site model
[3] = target: the molecule itself; experiment: cross-linking; 0.1% (w/v) glutaraldehyde, 10 min, room temperature, 50 mM HEPES pH 8.0; 15 uM hSR and 30 uM PSD-95 PDZ3, together or each alone; SDS-PAGE

- hSR activity (beta-elimination of L-serine, LDH-coupled assay), 0.44 uM hSR with 500 uM PSD-95 PDZ3, in the absence of ATP [1]: 22%
- Kd [2]: 82 µM
Molecule: Third PDZ domain of postsynaptic density protein 95 (domain or fragment)

B1: Human serine racemase (enzyme, UniProt Q9GZT4 1-340, looked up)
chain: MCAQYCISFADVEKAHINIRDSIHLTPVLTSSILNQLTGRNLFFKCELFQKTGSFKIRGALNAVRSLVPDALERKPKAVVTHSSGNHGQALTYAAKLEGIPAYIVVPQTAPDCKKLAIQAYGASIVYCEPSDESRENVAKRVTEETEGIMVHPNQEPAVIAGQGTIALEVLNQVPLVDALVVPVGGGGMLAGIAITVKALKPSVKVYAAEPSNADDCYQSKLKGKLMPNLYPPETIADGVKSSIGLNTWPIIRDLVDDIFTVTEDEIKCATQLVWERMKLLIEPTAGVGVAAVLSQHFQTVSPEVKNICIVLSGGNVDLTSSITWVKQAERPASYQSVSV
notes: human serine racemase (EC 5.1.1.18), PLP-dependent homodimer; monomer 38 kDa; also called hSR; SR; source: E. coli BL21 CodonPlus (DE3)-RIL co-expressing GroEL and GroES, purified (TALON resin); not shown: His6, N-terminal, kept
- binding result [3]: binds

Reference: article PMC9105370, “Human Serine Racemase Weakly Binds the Third PDZ Domain of PSD-95” (International Journal of Molecular Sciences, 2022)
